Measured values as given in the supplement of paper PMC10567573.

B1: MYOZ1 (parent)
chain: FSDSSMDHFQKFLPTVGGQLGTAG
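Note: lentivirally expressed fusions sorted by FACS into six bins by GFP to DsRed ratio, PSI derived from sequencing read proportions per bin multiplied by bin number.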

Variants of: B1
Assay: protein stability index of a GFP-peptide fusion (GPS, HEK-293T) (PSI 1-6); higher = more stable
Conditions: c terminus: a fixed tail appended
Variant FSDSSMDHFQHFLPTVGGQLGTAG [K11H] has a protein stability index of 2.38.
In the case of FSDSSMDHFQKFLPTVGGQLGTHG [A23H], the protein stability index is reported as 2.3.
FSDSSMDHFQLFLPTVGGQLGTAG [K11L] gave a protein stability index of 1.67.
Work on FSDSSGDHFQKFLPTVGGQLGTAG [M6G] yielded a protein stability index of 2.86.
With FSDSSMDHFQKFLPTVFGQLGTAG [G17F] the protein stability index was 1.85.
FSDSSMDHFQKFLPTVGGQLQTAG [G21Q] gave a protein stability index of 2.04.
With FSDSSMDHFQRFLPTVGGQLGTAG [K11R] the protein stability index was 2.12.
In the case of FSDSPMDHFQKFLPTVGGQLGTAG [S5P], the protein stability index is reported as 2.08.
Work on FSDSSSDHFQKFLPTVGGQLGTAG [M6S] yielded a protein stability index of 2.26.
Variant FSDSSMDHFQKFLPTVKGQLGTAG [G17K] has a protein stability index of 2.02.
Variant NSDSSMDHFQKFLPTVGGQLGTAG [F1N] has a protein stability index of 3.23.
FSESSMDHFQKFLPTVGGQLGTAG [D3E] gave a protein stability index of 3.06.
For FSDSSMDHFQKQLPTVGGQLGTAG [F12Q], the protein stability index was 3.04.
FSDSSMDHFQKFHPTVGGQLGTAG [L13H] gave a protein stability index of 3.29.
FSDHSMDHFQKFLPTVGGQLGTAG [S4H] gave a protein stability index of 2.35.
Work on FSDSSMDHFQKFLPTVGGQLGTAH [G24H] yielded a protein stability index of 2.33.
For FSDSSMDHLQKFLPTVGGQLGTAG [F9L], the protein stability index was 2.16.
FSDSQMDHFQKFLPTVGGQLGTAG [S5Q] showed a protein stability index of 2.19.
In the case of FSDSSMDHFQKFEPTVGGQLGTAG [L13E], the protein stability index is reported as 4.42.
In the case of FSDSSMDHFQKYLPTVGGQLGTAG [F12Y], the protein stability index is reported as 2.77.
FSDSSMGHFQKFLPTVGGQLGTAG [D7G] showed a protein stability index of 1.44.
FSDSSMDHFQKFLPTVCGQLGTAG [G17C] showed a protein stability index of 1.97.
FNDSSMDHFQKFLPTVGGQLGTAG [S2N] showed a protein stability index of 2.23.
FSDSSMDHFQKFLPTVGGQLGQAG [T22Q] gave a protein stability index of 2.36.
With FSDSSMDHFQKFLFTVGGQLGTAG [P14F] the protein stability index was 2.83.
FSDSSMSHFQKFLPTVGGQLGTAG [D7S] gave a protein stability index of 2.56.
FSDSSMDHFQKFLPTVGGQCGTAG [L20C] showed a protein stability index of 1.66.
For FSDSSMQHFQKFLPTVGGQLGTAG [D7Q], the protein stability index was 2.02.
FSDSSMDHFQKPLPTVGGQLGTAG [F12P] showed a protein stability index of 3.61.
In the case of FSDSRMDHFQKFLPTVGGQLGTAG [S5R], the protein stability index is reported as 1.05.
VSDSSMDHFQKFLPTVGGQLGTAG [F1V] showed a protein stability index of 3.56.
In the case of FSDSSMDHFQKFLPTVGGQLGTAK [G24K], the protein stability index is reported as 2.16.
In the case of FSDSSMDHQQKFLPTVGGQLGTAG [F9Q], the protein stability index is reported as 3.88.
For FSDSSMDHFQKFLPTVGGQLGTCG [A23C], the protein stability index was 2.08.
FSDSSMDHFQKFLPTVGGHLGTAG [Q19H] showed a protein stability index of 1.74.
FSDSSMDHFQKFLPTVGGQLGTNG [A23N] gave a protein stability index of 2.68.
With FSDSSMDHFQKFLPTVGGQLGTAM [G24M] the protein stability index was 1.92.
For FSDSSMDHFQFFLPTVGGQLGTAG [K11F], the protein stability index was 2.07.
FSDSSMDFFQKFLPTVGGQLGTAG [H8F] gave a protein stability index of 1.38.
For YSDSSMDHFQKFLPTVGGQLGTAG [F1Y], the protein stability index was 2.83.
Variant FRDSSMDHFQKFLPTVGGQLGTAG [S2R] has a protein stability index of 1.94.
FSDSSMDHFQWFLPTVGGQLGTAG [K11W] showed a protein stability index of 1.02.
For FSDSSMDHFQKFLPTVGGQIGTAG [L20I], the protein stability index was 2.69.
For FSDSHMDHFQKFLPTVGGQLGTAG [S5H], the protein stability index was 2.25.
FSDSSMDHFQKFYPTVGGQLGTAG [L13Y] gave a protein stability index of 2.76.
For FSDSSMDHFQKFLPTVGPQLGTAG [G18P], the protein stability index was 2.43.
Variant FSDSSMDHFQKFSPTVGGQLGTAG [L13S] has a protein stability index of 2.76.
Work on FSDSSMDHFQKFLPTVGWQLGTAG [G18W] yielded a protein stability index of 1.85.
With FSDSSMDHFQKFLPTVGVQLGTAG [G18V] the protein stability index was 1.94.
Work on FSDSSMDHPQKFLPTVGGQLGTAG [F9P] yielded a protein stability index of 4.38.
In the case of FSDSSMRHFQKFLPTVGGQLGTAG [D7R], the protein stability index is reported as 2.6.
FSDSSMDHFQKFLPTVTGQLGTAG [G17T] showed a protein stability index of 2.56.
For FSDSSMDHFQKFLPTVMGQLGTAG [G17M], the protein stability index was 2.06.
With FSDSSMDHFQKFLPTVGGQLGPAG [T22P] the protein stability index was 2.15.
FSDVSMDHFQKFLPTVGGQLGTAG [S4V] gave a protein stability index of 3.14.
FGDSSMDHFQKFLPTVGGQLGTAG [S2G] showed a protein stability index of 2.9.
Variant FSDSSMDHYQKFLPTVGGQLGTAG [F9Y] has a protein stability index of 2.78.
Work on FSDSSMDHFQKFLPTVGGQLGAAG [T22A] yielded a protein stability index of 2.29.
For FSDSSMPHFQKFLPTVGGQLGTAG [D7P], the protein stability index was 2.38.
In the case of FSDSSMDHFQKFIPTVGGQLGTAG [L13I], the protein stability index is reported as 1.9.
Variant FSPSSMDHFQKFLPTVGGQLGTAG [D3P] has a protein stability index of 1.56.
In the case of FSDSSMDHFQKFLPTVGGQRGTAG [L20R], the protein stability index is reported as 2.98.
Work on FSDSSMDHFQKFLPTDGGQLGTAG [V16D] yielded a protein stability index of 2.85.
With FSDSSMDHFQKFLPTVGGELGTAG [Q19E] the protein stability index was 3.12.
With FSDSSMDHFEKFLPTVGGQLGTAG [Q10E] the protein stability index was 1.95.
For FSDSSMDHEQKFLPTVGGQLGTAG [F9E], the protein stability index was 4.4.
Work on FSDSSMDHFQKFLPTVGGRLGTAG [Q19R] yielded a protein stability index of 3.06.
In the case of FSDSEMDHFQKFLPTVGGQLGTAG [S5E], the protein stability index is reported as 2.91.
With FSDSSMDHFSKFLPTVGGQLGTAG [Q10S] the protein stability index was 2.07.
Work on FSDSSMDHSQKFLPTVGGQLGTAG [F9S] yielded a protein stability index of 3.61.
With FSDSSMDHKQKFLPTVGGQLGTAG [F9K] the protein stability index was 3.09.
With FSDSSMDHFQKFLPTVGMQLGTAG [G18M] the protein stability index was 2.49.
Variant FSDSSMDHFQKFLGTVGGQLGTAG [P14G] has a protein stability index of 1.58.
For FSDSSMDHFQKDLPTVGGQLGTAG [F12D], the protein stability index was 4.08.
In the case of FSDSSMDHFQKFLPTVGGQLVTAG [G21V], the protein stability index is reported as 1.75.
With FSDSSMDHFQKFLPTVGGILGTAG [Q19I] the protein stability index was 2.01.
FSDSSMDHFQTFLPTVGGQLGTAG [K11T] gave a protein stability index of 2.45.
Variant FSDSSMDHFQKFAPTVGGQLGTAG [L13A] has a protein stability index of 2.52.
FSDSSMDHFQKFLPTVGGQDGTAG [L20D] gave a protein stability index of 3.24.
FSDSSMDHFQKFLPTVGGQLKTAG [G21K] gave a protein stability index of 2.32.
With FSDSSMDHFQKFLPTVGGQLPTAG [G21P] the protein stability index was 2.54.
Work on FSDSSMDHFRKFLPTVGGQLGTAG [Q10R] yielded a protein stability index of 1.13.
With FSDSSMDHFQKFLPTCGGQLGTAG [V16C] the protein stability index was 2.38.
Variant FSDSSMDHFQKFLPTVNGQLGTAG [G17N] has a protein stability index of 2.98.
Variant FSDSSMDHFQKFLPTVGGQLGTFG [A23F] has a protein stability index of 2.49.
FSDSSMDHFQKFLPDVGGQLGTAG [T15D] showed a protein stability index of 2.61.
FSDSSMDHFQKFLPTVGGQLGRAG [T22R] gave a protein stability index of 2.16.
FSDSSMDHFQKFLPTVHGQLGTAG [G17H] gave a protein stability index of 2.47.
In the case of FSDSSMDHFGKFLPTVGGQLGTAG [Q10G], the protein stability index is reported as 2.57.
With FSDSSMDHFQKFLPTVGGQFGTAG [L20F] the protein stability index was 2.25.
With FSDSSMDIFQKFLPTVGGQLGTAG [H8I] the protein stability index was 2.21.
FSDSSMCHFQKFLPTVGGQLGTAG [D7C] showed a protein stability index of 1.9.
In the case of FSDSSMDHFNKFLPTVGGQLGTAG [Q10N], the protein stability index is reported as 2.42.
With FSDSSMDHFQKFLPTVGGQYGTAG [L20Y] the protein stability index was 2.27.
